Test results as given in article PMC13228514 (2026).

Legend:
Assay in all cases: BLI; intact antibody
anti-LHFPL5 = target: anti-LHFPL5
39G7 = target: 39G7
8D1 = target: 8D1
Sequence of 8D1 (Q99PJ1 27-1462): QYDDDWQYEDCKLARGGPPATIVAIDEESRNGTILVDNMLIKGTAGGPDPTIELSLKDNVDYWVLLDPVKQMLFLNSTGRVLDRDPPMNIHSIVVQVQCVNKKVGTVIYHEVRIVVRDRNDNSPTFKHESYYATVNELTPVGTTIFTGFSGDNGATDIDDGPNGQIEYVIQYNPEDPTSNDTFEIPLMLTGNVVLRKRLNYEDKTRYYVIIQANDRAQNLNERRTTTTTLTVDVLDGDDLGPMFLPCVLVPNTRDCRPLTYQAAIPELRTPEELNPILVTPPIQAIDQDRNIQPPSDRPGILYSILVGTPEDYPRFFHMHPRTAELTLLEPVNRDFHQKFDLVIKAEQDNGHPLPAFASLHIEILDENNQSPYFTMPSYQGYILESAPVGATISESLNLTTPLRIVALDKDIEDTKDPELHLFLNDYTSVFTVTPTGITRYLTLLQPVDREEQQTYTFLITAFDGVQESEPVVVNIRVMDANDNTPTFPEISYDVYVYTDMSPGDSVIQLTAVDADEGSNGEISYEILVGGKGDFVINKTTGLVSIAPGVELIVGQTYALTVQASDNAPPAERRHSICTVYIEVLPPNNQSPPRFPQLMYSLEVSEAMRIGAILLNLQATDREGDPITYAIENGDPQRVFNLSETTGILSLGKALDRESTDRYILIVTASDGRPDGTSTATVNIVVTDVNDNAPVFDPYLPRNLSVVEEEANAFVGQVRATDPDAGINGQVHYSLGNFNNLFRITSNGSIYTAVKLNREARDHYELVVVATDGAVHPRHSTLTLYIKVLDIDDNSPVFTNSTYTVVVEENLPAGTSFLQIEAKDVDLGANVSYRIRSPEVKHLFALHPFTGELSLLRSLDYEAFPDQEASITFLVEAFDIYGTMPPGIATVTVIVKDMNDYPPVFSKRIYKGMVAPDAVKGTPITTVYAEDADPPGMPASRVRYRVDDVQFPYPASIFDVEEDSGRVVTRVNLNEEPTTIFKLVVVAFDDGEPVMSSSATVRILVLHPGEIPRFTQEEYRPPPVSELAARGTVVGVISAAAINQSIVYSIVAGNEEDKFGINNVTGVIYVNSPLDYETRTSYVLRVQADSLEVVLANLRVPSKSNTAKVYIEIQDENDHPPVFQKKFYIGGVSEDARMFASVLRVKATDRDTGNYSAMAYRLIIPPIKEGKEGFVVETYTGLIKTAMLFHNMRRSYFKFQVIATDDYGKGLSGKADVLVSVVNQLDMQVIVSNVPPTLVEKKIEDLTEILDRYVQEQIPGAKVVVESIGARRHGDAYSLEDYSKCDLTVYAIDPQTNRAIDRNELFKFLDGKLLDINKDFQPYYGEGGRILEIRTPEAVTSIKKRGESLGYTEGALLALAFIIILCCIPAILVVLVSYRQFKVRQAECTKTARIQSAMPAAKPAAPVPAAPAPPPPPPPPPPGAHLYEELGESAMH

Sequence of 39G7 (Q99PJ1 27-1462): as above

Row | Kd (anti-LHFPL5) | koff (anti-LHFPL5) | Kd (39G7) | koff (39G7) | Kd (8D1) | koff (8D1) | Binder
1 | 1 nM | 5e-05 s⁻¹ |  |  |  |  | recombinant lipoma HMGIC fusion partner-like protein 5 (LHFPL5), residues 2-219 (natural protein) VKLLPAQEAAKIYHTNYVRNSRAVGVMWGTLTICFSVLVMALFIQPYWIGDSVSTPQAGYFGLFSYCVGNVLSSELICKGGPLDFSSIPSRAFKTAMFFVALAMFLIIGSIICFSLFFVCNTATVYKICAWMQLAAATGLMIGCLVYPDGWDSSEVRRMCGEQTGKYTLGHCTIRWAFMLAILSIGDALILSFLAFVLGYRQDKLLPDDYKADGNEEV
2 |  |  | 0.2 nM | 2e-05 s⁻¹ | 0.05 nM | 3e-05 s⁻¹ | recombinant protocadherin-15 (PCDH15), residues 1-1462 (EC1-EC11 and part of the cytoplasmic region) (domain or fragment) not shown
